Reference: the supplement of paper PMC9170038

Columns and labels:
Conditions in all cases: FMN input: 0 or 200 uM; Eterna round: R93 (includes R88 designs)
MS2 coat protein [1] = test: apparent KD of MS2 coat protein, switch ON state; designed switch direction (-1 OFF switch, 1 ON switch): 1; higher = weaker reporter binding
In short: (§1)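 Apparent KD stands for the median, per design, of fits to normalised cluster binding curves. The curves came from titrating on-chip-transcribed RNA switches on Illumina sequencing clusters with SNAP-549-labelled MS2 coat protein, twofold from 0.7 or 1.5 nM to 3 µM. Buffer was 100 mM Tris-HCl pH 7.5, 80 mM KCl, 4 mM MgCl2, without or with constant ligand.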

MS2 coat protein [2] = test: apparent KD of MS2 coat protein, switch OFF state (with FMN for OFF switches, without FMN for ON switches); designed switch direction (-1 OFF switch, 1 ON switch): 1; higher = weaker reporter binding
In short: as §1

MS2 coat protein [3] = test: apparent KD of MS2 coat protein, switch ON state; designed switch direction (-1 OFF switch, 1 ON switch): -1; higher = weaker reporter binding
In short: as §1

MS2 coat protein [4] = test: apparent KD of MS2 coat protein, switch OFF state (with FMN for OFF switches, without FMN for ON switches); designed switch direction (-1 OFF switch, 1 ON switch): -1; higher = weaker reporter binding
In short: as §1

| Sequence | apparent KD of MS2 coat protein (MS2 coat protein [1]) [nM] | apparent KD of MS2 coat protein (MS2 coat protein [2]) [nM] | apparent KD of MS2 coat protein (MS2 coat protein [3]) [nM] | apparent KD of MS2 coat protein (MS2 coat protein [4]) [nM] |
| --- | --- | --- | --- | --- |
| AAAAAAAAAAGAGAGGAUAUCCAAAAAAAAACAUGAGGAUCACCCAUGUAAAAAAAAAAAAAAUGGGAGAAGGCUCAAAAAAAAAA [Helter Skelter 1] | 33.4 | 54.8 | – | – |
| AAAAAACAUGAGGAUCACCCAUGUAAAAAAAUGGGAGGAUAUACAAAAACGAAAGAAAAAGUAGAAGGCCUGAAAA [same state 7] | 37.7 | 159 | – | – |
| AAAAAACAUGAGGAUCACCCAUGUAAAAAUAUGGGAGGAUAUACAAACACGAAAGUGAAAGUAGAAGGCCUAAAAA [SS! MT 17] | 19 | 85.3 | – | – |
| AAAAAACAUGAGGAUCACCCAUGUCAAAAGACGUGAGGAUAUGUACAGACUUCGGUCUGUACAGAAGGCAUGUAAA [SS1 - 1053] | 21.3 | 144 | – | – |
| AAAAAACAUGAGGAUCACCCAUGUCCUCACGUGCGAGGAUAUGGAUGGAAACCAUACUGUCCAGAAGGCGCAUGUA [EteRNA is fun!] | 230 | 159 | – | – |
| AAAAAACAUGAGGAUCACCCAUGUCGAAAGACGUGAGGAUAUGUACAGACUUCGGUCUGUACAGAAGGCACAAAAA [SS1 - 1032] | 24.6 | 208 | – | – |
| AAAAAACAUGAGGAUCACCCAUGUCUUCGGACGUGAGGAUAUGUACAGACUUCGGUCUGUACAGAAGGCACGAAAA [SS1 - 1035] | 22.7 | 114 | – | – |
| AAAAAACAUGAGGAUCACCCAUGUGAAGAUAUGGAAGGAUAUACAAAGACGAAAGUCAAAGUAGAAGGUCUAAAAG [76%, Meechl 3] | 17.1 | 17.7 | – | – |
| AAAAAACAUGAGGAUCACCCAUGUGAGAACAUGGGAGGAUAUACGAGGACGAGAGUCAAGGUAGAAGGCCUAAAAG [Garnet 73] | 50.1 | 13.6 | – | – |
| AAAAAACAUGAGGAUCACCCAUGUGCAAAAUUCGCAGGAUAUUCCUCAAUUAAAUGAGAGGAAGAAGGGUGUAAAA [Nob's Hobby 25 - Jieux - Same State 1] | 27.4 | 130 | – | – |
| AAAAAACAUGAGGAUCACCCAUGUGCAAAAUUCGCAGGAUAUUUCUCAAUUAAAUGAGAGGAAGAAGGGUGAAAAA [Nob's Hobby 27 - Jieux - Same State 1] | 21.5 | 99.3 | – | – |
| AAAAACACAGUGCAGGAUAUGGUAAUAGUCACAUGAGGAUCACCCAUGUUCUUUUAUAAGAACGAUCAGAAGGGCGGUGAAAAAA [Mat - Same state - Malcolm Mod - D114] | 241 | 155 | – | – |
| AAAAAGAACACGCAGGAUAUGCAAAGAAACACAUGAGGAUCACCCAUGUCCAAAAACCCAAAAACGCAGAAGGGCGAAAAACCCA [Default title] | 25.6 | 28.3 | – | – |
| AAAACACAUGAGGAUCACCCAUGUGAAAACAUGAGAGGAUAUGCAUGGAAAACAUGCUAUGCAGAAGGCUCAUGUG [SS1 - 8] | 16.5 | 23.2 | – | – |
| AAAAGACAUGAGGAUCACCCAUGUAAAGACAUGAGAGGAUAUGCAUGGAAAACAUGCUGUGCAGAAGGCUCAUGUC [SS1 - 17] | 18.1 | 22.6 | – | – |
| AAAAGACAUGAGGAUCACCCAUGUCAAGACAUAGGAGGAUAUGUCAUGAAAAAAGACUUGACAGAAGGCCUUUGUC [SS1 - 51] | 16.7 | 17.4 | – | – |
| AAAAGACAUGAGGAUCACCCAUGUGAAAACGUAGGAGGAUAUGUCUGGAAAACAGACUGGACAGAAGGCCUGUGUC [SS1 - 33] | 24.4 | 36 | – | – |
| AAAAGACAUGAGGAUCACCCAUGUGAAAACGUGCGAGGAUAUGUAUGGAAACUAUACUGUACAGAAGGCGCAUGUC [SS1 - 81] | 19.9 | 24.3 | – | – |
| AAACCACAUGAGGAUCACCCAUGUAAAAAUAUGGGAGGAUAUGCGAAAAGAAACAAAGAAGCAGAAGGCCUAAAAA [75%, Ex sub1, 19] | 26.3 | 114 | – | – |
| AAAGACAUAGUUCAGGAUAUGGUAAUAGUCACAUGAGGAUCACCCAUGUGCAUUUAUAUGCGCGAUCAGAAGGGAGGUAAAAAAA [SameState2 Malc#16] | 17.5 | 21.9 | – | – |
| AAAUAAAGAUACUAGGAUAUCCCGUGAGGUACAUGAGGAUCACCCAUGUGUAACGAACUCCCGCGGGAGAAGGAGUUGCACACGA [Inanuserra] | 38 | 52.4 | – | – |

| Sequence | apparent KD of MS2 coat protein (MS2 coat protein [1]) [nM] | apparent KD of MS2 coat protein (MS2 coat protein [2]) [nM] | apparent KD of MS2 coat protein (MS2 coat protein [3]) [nM] | apparent KD of MS2 coat protein (MS2 coat protein [4]) [nM] |
| --- | --- | --- | --- | --- |
| AAAUAAAGGACUGAGGAUAUACCACAUGAAACAUGAGGAUCACCCAUGUUGAAAAACAGAGGGUGGUAGAAGGCAGUCCACAAAC [Same State 2.5d ( so lets mod hyphema)] | 12.5 | 23.3 | – | – |
| AAAUAAAUGACUAAGGAUAUAUCAAAAGAAACAUGAGGAUCACCCAUGUAAUAAUAAAAAGGGUGAUAGAAGGUAGUCAACAAAC [74%, More Paria 4] | 24.6 | 115 | – | – |
| AAAUAAAUGACUGAGGAUAUAUCGAUGAGUACAUGAGGAUCACCCAUGUGAUAAUAAAAAGGGUGGUAGAAGGUAGUCAACAAAC [Mod 14 of Pariah 4 by Hyphema in Round 1] | 185 | 150 | – | – |
| AAAUAACAUGAGGAUCACCCAUGUUACGACGUUACAGGAUAUGUGGGUGAAAAUAGCAUGACAGAAGGGUACCGUA [SameState1 Malc#37] | 68.5 | 60.3 | – | – |
| AACAAUCUAUCUGAGGAUAUCAUGACAAAGACAUGAGGAUCACCCAUGUCCAGGAAAACUGGUUAUGAGAAGGCAGAUAGAUUGA [SS2: 1112] | 9.7 | 13.2 | – | – |
| AACAAUCUAUCUGAGGAUAUCAUGUCAAAGACAUGAGGAUCACCCAUGUGUAGGAAAACUACAUAUGAGAAGGCAGAUAGAUUGA [SS2 :P - 598] | 610 | 103 | – | – |
| AACAAUCUAUCUGAGGAUAUCAUGUGAAAGACAUGAGGAUCACCCAUGUUGCAGGAAACUGCUCAUGAGAAGGCAGAUAGAUUGA [SS2: 1126] | 11.5 | 28.3 | – | – |
| AACAGGAAGAGAGAGGAUAUCCAAAGGAAAACAUGAGGAUCACCCAUGUAAAAGGUAGGAAAUUGGGAGAAGGCUCAAGAGAGAG [salish99-ss2-089] | 24.8 | 47.3 | – | – |
| AAGAAACAUGAGGAUCACCCAUGUAAGAUAAACACAGGAUAUGCGAAAAGAAACAAAUAAGCAGAAGGGUGAAGAA [Mat - Same State 1 - Tesla mod - 64] | 16.3 | 23 | – | – |
| AAGAAACAUGAGGAUCACCCAUGUAAGAUAAACACAGGAUAUGCGAAAAUAAACAAAUAAGCAGAAGGGUGAAAAG [Mat - Same State 1 - Tesla mod - 76] | 15.2 | 19.3 | – | – |
| AAGAAACAUGAGGAUCACCCAUGUAGAAAUAUGGGAGGAUAUACAAAGACGAAAGUCAAAGUAGAAGGCCUGAAAG [Mat - Same State 1 - Eli mod - 84] | 38.5 | 72.4 | – | – |
| AAGAAACAUGAGGAUCACCCAUGUGAUAAUAUGGGAGGAUAUACAAAGACGAAAGACGAAGUAGAAGGCCUAUGAA [Garnet 44] | 49 | 124 | – | – |
| AAGAAACAUGAGGAUCACCCAUGUGAUAAUAUGGGAGGAUAUACGAAGACGAAAGACGAAGUAGAAGGCCUAUGAA [Garnet 45] | 46.9 | 83.3 | – | – |
| AAUAACAAAAGAAAGGAUAUAUAAACAGGAACAUGAGGAUCACCCAUGUGCCGCCAAGGCGGAUAAUAGAAGGUUCACAUGCAUA [Default title] | 47 | 25.3 | – | – |
| AAUAAUUAUACGAAGGAUAUCGGUAUUAAGACAUGAGGAUCACCCAUGUAAUAUGGUUAUAUAAACGAGAAGGUCGAGGGUGAAA [JR_SS002_Sub008] | 38.6 | 36.9 | – | – |
| AAUAAUUAUAUGGAGGAUAUCGGUAAUAAGACAUGAGGAUCACCCAUGUAAUAAGGUUAAAUAAACGAGAAGGCCAAGGGUGAAA [JR_SS002_Sub005] | 59.7 | 234 | – | – |
| AAUAGACAUGAGGAUCACCCAUGUGUAUAUGGGAGAGGAUAUACGGGACACAAGGGCGGAGUAGAAGGCUCGAGAC [Same Satate 1] | 68.2 | 83.9 | – | – |
| UACGUAUGAGGAUAUACAAACAGAAAAAUCAGACAUAACAGACAUGAGGAUCACCCAUGUAGAAGGCAUAUACA [JR_Exc002_Sub903] | – | – | 20.1 | 15.3 |
| UAGGUACGAGGAUAUACAUAGAUACAGACACAUGUAGAUGUACAUGAGGAUCACCCAUGUAGAAGGCGUAUAUA [Mat - Same state - Mayanna Mod - D110] | – | – | 52.6 | 142 |
| UAUAACCAAGGAUAUACUAACGAAACUAAUGCAUAUAUAUAACAUGAGGAUCACCCAUGUAGAAGGUGGAGAAU [JR_Exc002_Sub012] | – | – | 60.5 | 50.2 |
| UAUAGACAUGAGGAUCACCCAUGUGAGGAUAUCGGUAACUACAAAACAUCACAUACAACGAGAAGGCACAGAAA [JR_Exc001_Sub013] | – | – | 41.5 | 35.1 |
